# Results as given in article PMC6957483, “Anosmin-1 activates vascular endothelial growth factor receptor and its related signaling pathway for olfactory bulb angiogenesis” (Scientific Reports, 2020).
# Target: T1, Recombinant human VEGFR2-Fc (human, UniProt P35968 20-764)
# T1 construct: VEGF receptor-2 (VEGFR2, KDR), human; Probably the extracellular domain fused to an IgG Fc; In the functional rows this id stands for the whole VEGFR2 on HUVECs or PAE/KDR cells; also called VEGF receptor-2; KDR; source: bought: BioLegend
# T1 sequence (P35968 20-764): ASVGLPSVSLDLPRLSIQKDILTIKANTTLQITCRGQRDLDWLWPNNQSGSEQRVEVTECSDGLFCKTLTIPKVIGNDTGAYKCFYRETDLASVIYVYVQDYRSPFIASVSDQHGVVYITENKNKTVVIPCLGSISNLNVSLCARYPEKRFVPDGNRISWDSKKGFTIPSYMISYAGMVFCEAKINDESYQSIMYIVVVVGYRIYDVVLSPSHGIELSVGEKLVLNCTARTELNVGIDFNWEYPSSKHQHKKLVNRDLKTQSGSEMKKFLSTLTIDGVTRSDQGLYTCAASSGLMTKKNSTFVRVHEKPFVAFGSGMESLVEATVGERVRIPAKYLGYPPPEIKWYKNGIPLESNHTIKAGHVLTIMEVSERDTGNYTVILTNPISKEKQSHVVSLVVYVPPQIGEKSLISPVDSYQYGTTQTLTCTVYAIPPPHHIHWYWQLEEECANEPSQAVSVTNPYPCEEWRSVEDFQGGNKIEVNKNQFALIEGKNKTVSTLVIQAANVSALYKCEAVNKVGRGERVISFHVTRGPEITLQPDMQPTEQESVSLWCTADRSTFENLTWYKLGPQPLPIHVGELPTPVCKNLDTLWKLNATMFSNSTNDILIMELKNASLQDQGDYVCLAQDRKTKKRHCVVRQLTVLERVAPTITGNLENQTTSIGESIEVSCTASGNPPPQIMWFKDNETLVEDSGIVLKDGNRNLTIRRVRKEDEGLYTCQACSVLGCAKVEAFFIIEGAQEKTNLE
# Test: SPR; BIAcore, 20 °C; VEGFR2-Fc (50 µg/mL in 10 mM sodium acetate, pH 4.5) coupled to an EDC/NHS-activated CM5 chip; anosmin-1, its mutant or VEGF-A injected in PBS with 0.35 M NaCl at 30 µL/min; affinity calculated from the on- and off-rates
# Details: both partners purified
Kd,koff,kon,Binder
1400 nM,0.046 s⁻¹,34000 M⁻¹ s⁻¹,"Recombinant human anosmin-1 Δ2–4 deletion mutant (domain or fragment, secreted from 293T cells (pSecTag2; vector signal and His tag left out), likely N-glycosylated; cysteine box + WAP + first FnIII kept, FnIII 2-4 and His-rich region deleted; C-terminal limit taken …) AGPGAAAARRLDESLSAGSVQRARCASRCLSLQITRISAFFQHFQNNGSLVWCQNHKQCSKCLEPCKESGDLRKHQCQSFCEPLFPKKSYECLTSCEFLKYILLVKQGDCPAPEKASGFAAACVESCEVDNECSGVKKCCSNGCGHTCQVPKTLYKGVPLKPRKELRFTELQSGQLEVKWSSKFNISIEPVIYVVQRRWNYGIHPSEDDATHWQTVAQTTDERVQLTDIRPSRWYQFRVAAVNVHGTRGFTAPSKHFRSSKDP"
32 nM,0.0011 s⁻¹,35000 M⁻¹ s⁻¹,"Recombinant human anosmin-1 wild-type (natural protein, UniProt P23352 25-680, looked up, anosmin-1, human, product of the ANOS1 gene; also called anosmin-1 WT; WT; source: 293 T cells (pSecTag2 vector), conditioned media, purified (HisTrap HP column, PD-10 column)) AGPGAAAARRLDESLSAGSVQRARCASRCLSLQITRISAFFQHFQNNGSLVWCQNHKQCSKCLEPCKESGDLRKHQCQSFCEPLFPKKSYECLTSCEFLKYILLVKQGDCPAPEKASGFAAACVESCEVDNECSGVKKCCSNGCGHTCQVPKTLYKGVPLKPRKELRFTELQSGQLEVKWSSKFNISIEPVIYVVQRRWNYGIHPSEDDATHWQTVAQTTDERVQLTDIRPSRWYQFRVAAVNVHGTRGFTAPSKHFRSSKDPSAPPAPANLRLANSTVNSDGSVTVTIVWDLPEEPDIPVHHYKVFWSWMVSSKSLVPTKKKRRKTTDGFQNSVILEKLQPDCDYVVELQAITYWGQTRLKSAKVSLHFTSTHATNNKEQLVKTRKGGIQTQLPFQRRRPTRPLEVGAPFYQDGQLQVKVYWKKTEDPTVNRYHVRWFPEACAHNRTTGSEASSGMTHENYIILQDLSFSCKYKVTVQPIRPKSHSKAEAVFFTTPPCSALKGKSHKPVGCLGEAGHVLSKVLAKPENLSASFIVQDVNITGHFSWKMAKANLYQPMTGFQVTWAEVTTESRQNSLPNSIISQSQILPSDHYVLTVPNLRPSTLYRLEVQVLTPGGEGPATIKTFRTPELPPSSAHRSHLKHRHPHHYKPSPERY"
